These are literature values, as cited in patent US20020001615A1, “Combined interferon alfa and lipsosmal-encapsulated all-trans retinoic acid, including preparation and use” (Aronex Pharmaceuticals, Inc., priority 2000, published 2002).

Like-named read-outs stand apart in the source and are kept apart here.

For data set [1] the following is noted: after three months on therapy, concomitant IFN.

As to `CC1=C(/C=C/C(C)=C/C=C/C(C)=C/C(=O)O)C(C)(C)CCC1` [ATRA, all-trans retinoic acid], the “peak levels of atra in the serum” value in data set [1] is listed as “declined”.

Regarding Interferon alfa-2b, the “stable for (time)” value reads like this: (at 30° C.) “up to 14 days”; (at 35° C.) “up to 7 days”.
